The labels stand for the following.
B3: NrdJa subunit of the split class II ribonucleotide reductase from Pseudomonas aeruginosa (enzyme, UniProt Q9HT76 1-734, looked up)
chain: MLRTVAGFGRPNNHREVNQRMAKTDARSPRTERGTIALQDASQDIWDKKYRLKSKDGTPVDASVDGTWQRVARALADVEDKASREHWYGRFLWALRNGAIPAGRIISNAGALGHKPATSTINCTVSGTIQDSMDNILEKVHEAGLTLKAGCGIGYEFSTLRPRGAYVSGAGAYTSGPLSFMDIYDKMCFTVSSAGGRRGAQMGTFDVSHPDVREFIRAKREDGRLRQFNLSLLITDQFMQAVEQDADWPLVFPVHVKERDEIDLDDPNAVVWREWPIQDDYVQRADGLVACKVYGQVRARHLWDMIMVSTYDYAEPGFILIDRVNELNNNWWCEAIRATNPCGEQPLPPYGSCLLGSVNLTCFVEQPFGDEARFDWDRFREVVRVFTRMLDNVVEINGLPLEQQRQEILGKRRHGMGFLGLGSTLTLLKLRYGSPEACVFTEEVAREMALVGWEVALELAREKGPAPILAQDYEVTAEMLRKRPEMAADGYKAGDRIRGSVLHAKYSRYMQRVAEHAPELIEALAETGARFTHHSSIAPTGTISLSLANNASNGIEPSFAHHYSRNLIREGRKTKEKVEVYSYELLAYRTLVNAQALPDSDDPARRLPDYFITADSVTPAQHMDIQAAAQKWVDSSISKTANVPTDYPFEDFKDIYRYAWHQGLKGCTTFRFNPEAFQGVLVKESDLEKTRYRFELEDGSVVEFKGNEQVEYDGEIHTAANLFDALKEGYYGKY
modifications: biotin linker (0.15 biotin linker/NrdJa monomer) only where NrdJa was immobilised on the streptavidin chip for SPR
notes: NrdJa, large subunit of the split class II ribonucleotide reductase (NrdJ) of Pseudomonas aeruginosa; 734 residues in PA; the nrdJa open reading frame was cloned into pET22; Monomer or dimer according to the allosteric effector (GEMMA); also called PA NrdJa

The target of series [1] is B3. Put plainly: SPR; biotinylated NrdJb immobilised on streptavidin chip, 0-2 uM NrdJa injected at 30 ul/min; 30 mM Tris-HCl pH 7.0, 10 mM MgCl2, 0.025% P20, 2 mM DTT; no additive; steady state fit; apparent Kd. Conditions: both partners purified. A general note: In SPR one partner is held on a chip, and binding of the other changes the refractive index at the surface.
The target of series [2] is B3. Put plainly: SPR; biotinylated NrdJb immobilised on streptavidin chip, 0-2 uM NrdJa injected; 30 mM Tris-HCl pH 7.0, 10 mM MgCl2, 0.025% P20, 2 mM DTT; with 0.5 mM dATP; steady state fit; apparent Kd. Conditions: both partners purified.
Series [3] addresses B3. The experiment in a line: SPR; biotinylated NrdJb immobilised on streptavidin chip, 0-2 uM NrdJa injected; 30 mM Tris-HCl pH 7.0, 10 mM MgCl2, 0.025% P20, 2 mM DTT; with 0.5 mM CTP + 40 uM AdoCbl; steady state fit; apparent Kd. The following applies: both partners purified.
Series [4] deals with B3. Put plainly: SPR; biotinylated NrdJb immobilised on streptavidin chip, 0-2 uM NrdJa injected; 30 mM Tris-HCl pH 7.0, 10 mM MgCl2, 0.025% P20, 2 mM DTT; with 0.5 mM CTP; steady state fit; apparent Kd. The following applies: both partners purified.
Series [5] concerns the target B3. Put plainly: SPR; biotinylated NrdJb immobilised on streptavidin chip, 0-2 uM NrdJa injected; 30 mM Tris-HCl pH 7.0, 10 mM MgCl2, 0.025% P20, 2 mM DTT; with 40 uM AdoCbl; steady state fit; apparent Kd. The following applies: both partners purified.
The target of series [6] is B3. The experiment in a line: cell-based or functional assay.
Series [7] has as its target B3. The experiment in a line: SPR; biotinylated NrdJb immobilised on streptavidin chip, 0-2 uM NrdJa injected; 30 mM Tris-HCl pH 7.0, 10 mM MgCl2, 0.025% P20, 2 mM DTT; with 0.5 mM dATP + 0.5 mM CTP + 40 uM AdoCbl; steady state fit; apparent Kd. Conditions: both partners purified.
Substrate in series [8]: Nc1ccn([C@@H]2O[C@H](COP(=O)(O)OP(=O)(O)OP(=O)(O)O)[C@@H](O)[C@H]2O)c(=O)n1
Put plainly: 3H-CTP reduction assay, Michaelis-Menten fit. It is filed as biochemical, Pseudomonas aeruginosa. The following applies: 1 mM ATP, 100 μM AdoCbl, 30 mM DTT, 10 mM MgCl2, pH 7.5, labelled compound.

Series [9] concerns the molecule itself. Put plainly: gas phase electrophoretic macromolecule analysis (GEMMA); 0.02 mg/ml NrdJa in 40 mM ammonium acetate pH 7.8, 0.005% Tween-20, 2 mM DTT; with 50 uM dTTP and 1:1 Mg2+.

B1: NrdJb subunit of the split class II ribonucleotide reductase from Pseudomonas aeruginosa (enzyme, UniProt Q9HT77 1-229, looked up)
chain: MSAVKITQKIKGFKVVNEAEEQALAAAAEAASVVQMDETLERPDTLIGATYKIKSPLFEHALYVTINDMVLNAGTAHEQRRPFEIFINSKNMDHFQWIVALTRIMSAVFRKGGDCTFLVEELKAVFDPRGGYLKKGGIYMPSIVAEIGGVLERHLTAIGLLRGPELDEEQRLFLAEKRAAYEAAQGTSKVEPGEGFPAGAQLCGKCNSMAVVQMDGCATCLNCGHSKCG
modifications: biotin linker (0.05 biotin linker/NrdJb monomer) where NrdJb was immobilised on the streptavidin chip for SPR
notes: NrdJb, small subunit of the split class II ribonucleotide reductase (NrdJ) of Pseudomonas aeruginosa; 229 residues in PA; the gene encoding NrdJb was custom synthesised with codon optimisation for E. coli and cloned into pET21; No cleavage of the tag is described; Probably the whole 229-residue protein; also called PA NrdJb; His-tagged NrdJb; source: E. coli BL21(DE3), pET21, codon-optimised …
As for B1, the Kd in series [1] came to 690 ± 60 nM; in series [2], 91 ± 17 nM; in series [3], 300 ± 190 nM; in [4], 360 ± 90 nM; in series [5], 680 ± 100 nM; in [7], 54 ± 12 nM. Also, the “stoichiometry from the enzyme activity titration (activity leveled off at approximately equimolar concentration of NrdJa and NrdJb)” value in [6] is 1.

B2: NrdJa-NrdJb (split class II ribonucleotide reductase, PA NrdJ) (Pseudomonas aeruginosa PAO1) (protein)
chain: MLRTVAGFGRPNNHREVNQRMAKTDARSPRTERGTIALQDASQDIWDKKYRLKSKDGTPVDASVDGTWQRVARALADVEDKASREHWYGRFLWALRNGAIPAGRIISNAGALGHKPATSTINCTVSGTIQDSMDNILEKVHEAGLTLKAGCGIGYEFSTLRPRGAYVSGAGAYTSGPLSFMDIYDKMCFTVSSAGGRRGAQMGTFDVSHPDVREFIRAKREDGRLRQFNLSLLITDQFMQAVEQDADWPLVFPVHVKERDEIDLDDPNAVVWREWPIQDDYVQRADGLVACKVYGQVRARHLWDMIMVSTYDYAEPGFILIDRVNELNNNWWCEAIRATNPCGEQPLPPYGSCLLGSVNLTCFVEQPFGDEARFDWDRFREVVRVFTRMLDNVVEINGLPLEQQRQEILGKRRHGMGFLGLGSTLTLLKLRYGSPEACVFTEEVAREMALVGWEVALELAREKGPAPILAQDYEVTAEMLRKRPEMAADGYKAGDRIRGSVLHAKYSRYMQRVAEHAPELIEALAETGARFTHHSSIAPTGTISLSLANNASNGIEPSFAHHYSRNLIREGRKTKEKVEVYSYELLAYRTLVNAQALPDSDDPARRLPDYFITADSVTPAQHMDIQAAAQKWVDSSISKTANVPTDYPFEDFKDIYRYAWHQGLKGCTTFRFNPEAFQGVLVKESDLEKTRYRFELEDGSVVEFKGNEQVEYDGEIHTAANLFDALKEGYYGKY
notes: E. coli BL21(DE3); NrdJa untagged in pET22, 734 residues; NrdJb 229 residues, codon-optimised, 6xHis in pET21 (C-terminal in results, N-terminal in methods); proposed (NrdJa-NrdJb)2; with Class II (cobalamin-dependent) ribonucleotide-diphosphate reductase subunit, NrdJb
By Km is commonly meant the concentration of substrate that gives half-maximal velocity. B2: the Km in series [8] stood at 220 ± 60 µM.
In general, stoichiometry N refers to a count of units in the complex or per binding partner. Consider B3, for which the “stoichiometry N” value in series [9] turned out to be 2.

Source of the values: article PMC4520616, “Biochemical Characterization of the Split Class II Ribonucleotide Reductase from Pseudomonas aeruginosa” (PLoS ONE, 2015).
